# In paper PMC4977154, “Structural mechanism of ligand activation in human calcium-sensing receptor” (eLife, 2016):
# Numbering of substitutions follows the chain as printed. Names may count otherwise.
# B1: wild-type human CaSR ECD (domain or fragment, UniProt P41180 20-612, looked up)
# chain: YGPDQRAQKKGDIILGGLFPIHFGVAAKDQDLKSRPESVECIRYNFRGFRWLQAMIFAIEEINSSPALLPNLTLGYRIFDTCNTVSKALEATLSFVAQNKIDSLNLDEFCNCSEHIPSTIAVVGATGSGVSTAVANLLGLFYIPQVSYASSSRLLSNKNQFKSFLRTIPNDEHQATAMADIIEYFRWNWVGTIAADDDYGRPGIEKFREEAEERDICIDFSELISQYSDEEEIQHVVEVIQNSTAKVIVVFSSGPDLEPLIKEIVRRNITGKIWLASEAWASSSLIAMPQYFHVVGGTIGFALKAGQIPGFREFLKKVHPRKSVHNGFAKEFWEETFNCHLQEGAKGPLPVDTFLRGHEESGDRFSNSSTAFRPLCTGDENISSVETPYIDYTHLRISYNVYLAVYSIAHALQDIYTCLPGRGLFTNGSCADIKKVEAWQVLKHLRHLNFTNNMGEQVTFDECGDLVGNYSIINWHLSPEDGSIVFKEVGYYNVYAKKGERLFINEEKILWSGFSREVPFSNCSRDCLAGTRKGIIEGEPTCCFECVECPDGEYSDETDASACNKCPDDFWSNENHTSCIAKEIEFLSWTEPF
# modifications: heavily glycosylated
# notes: signal peptide in the construct; human calcium-sensing receptor (CaSR), extracellular domain, residues 1-612; The C-terminal Flag tag is told for 'each construct' in the paragraph on the mutants; the wild type was also purified on anti-Flag M2 and held by anti-Flag M2 in the scintillation proximity assay with L-Trp (not a protein-protein experiment); also called wt-CaSR ECD; extracellular domain …
# B2: human CaSR ECD mutant carrying three glycosylation-site mutations (N386Q, S402N and N468Q) (domain or fragment, UniProt P41180 20-612, looked up)
# chain: B1 chain with N367Q, S383N, N449Q
# modifications: N-acetyl-glucosamine seen at Asn90, Asn287, Asn488, Asn541 of one protomer and Asn541 of the other
# notes: signal peptide in the construct; human calcium-sensing receptor (CaSR), extracellular domain, residues 1-612; modelled residues 20-119, 135-359, 393-598 in one protomer and 22-122, 136-360, 392-602 in the other; Disulfide-tethered homodimer; cloned into the pFBDM vector; also called calcium-sensing receptor extracellular domain; form II crystal protein; source: sf9 insect cells infected with …
# B3: human CaSR ECD mutant carrying two glycosylation-site mutations (N386Q, S402N), partially deglycosylated with Endo H (domain or fragment, UniProt P41180 20-612, looked up)
# chain: B1 chain with N367Q, S383N
# modifications: partially deglycosylated with Endo H; N-acetyl-glucosamine seen at Asn261, Asn287, Asn446, Asn468, Asn488, Asn541, Asn594; inter-subunit disulfide bond formed by C129
# notes: signal peptide in the construct; human calcium-sensing receptor (CaSR), extracellular domain, residues 1-612; modelled residues 21-130 and 136-603; Disulfide-linked homodimer; cloned into the pFBDM vector; also called calcium-sensing receptor extracellular domain; form I crystal protein; source: sf9 insect cells infected with baculovirus, with kifunensine, secreted
# What was measured:
# [1] = target: the molecule itself; assay: SEC; Superdex-200 size exclusion chromatography of secreted wild-type CaSR ECD; 20 mM Tris pH 8.0, 150 mM NaCl
# [2] = target: the molecule itself; assay: SDS gel under reducing and non-reducing conditions; purified CaSR ECD mutant (N386Q, S402N, N468Q) after Superdex-200, with (+DTT) and without (-DTT) reducing agent
# [3] = target: the molecule itself; assay: crystal structure; form I crystal, space group F222, one molecule per asymmetric unit, homodimer with a crystallographic symmetry-related molecule; 1.5 M Li2SO4, 100 mM Tris pH 8.5, 2 mM CaCl2, 20°C; inactive (open-open) state
protein,measurement,setting,value
B1,binding result,[1],binds
B2,binding result,[2],binds
B3,binding result,[3],binds
